# Measurements reported in the supplement of paper PMC6379048.
# Key:
# Assay in all cases: Kd (EC50 corrected by depletion factor)
# AASS = target: T1, AASS (UniProt Q9UDR5)
# T1 sequence: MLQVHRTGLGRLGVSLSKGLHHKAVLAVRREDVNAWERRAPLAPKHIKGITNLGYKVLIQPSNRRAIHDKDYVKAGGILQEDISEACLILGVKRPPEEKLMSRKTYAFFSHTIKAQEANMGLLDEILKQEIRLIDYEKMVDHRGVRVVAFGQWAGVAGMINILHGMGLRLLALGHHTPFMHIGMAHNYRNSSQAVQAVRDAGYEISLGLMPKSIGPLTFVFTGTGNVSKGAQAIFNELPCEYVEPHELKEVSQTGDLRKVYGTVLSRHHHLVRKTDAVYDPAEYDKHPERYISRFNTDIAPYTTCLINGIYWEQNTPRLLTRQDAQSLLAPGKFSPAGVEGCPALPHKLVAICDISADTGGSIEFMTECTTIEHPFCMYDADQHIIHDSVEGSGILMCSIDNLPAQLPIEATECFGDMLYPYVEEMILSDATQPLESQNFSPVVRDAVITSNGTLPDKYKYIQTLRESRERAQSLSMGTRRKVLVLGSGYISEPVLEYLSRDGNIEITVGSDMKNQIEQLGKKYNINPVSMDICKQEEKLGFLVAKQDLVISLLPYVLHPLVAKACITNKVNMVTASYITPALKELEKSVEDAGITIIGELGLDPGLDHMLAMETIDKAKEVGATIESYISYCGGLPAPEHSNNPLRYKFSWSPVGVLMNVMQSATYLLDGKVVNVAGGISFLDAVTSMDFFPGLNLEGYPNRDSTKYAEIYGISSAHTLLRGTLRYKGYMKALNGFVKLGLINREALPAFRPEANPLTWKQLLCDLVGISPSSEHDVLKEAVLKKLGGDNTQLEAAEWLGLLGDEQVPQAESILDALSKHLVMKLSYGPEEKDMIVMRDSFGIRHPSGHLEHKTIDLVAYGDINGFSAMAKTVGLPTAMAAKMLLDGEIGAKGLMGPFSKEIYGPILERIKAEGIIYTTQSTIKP
# Outline: (§1)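 HEK293-FT lysate (2.5 mg protein/well) was treated with free RNA oligos (0 nM to 30 μM) for 1 h at 4°C, then with the same oligos on NHS-Sepharose beads for 30 min at 4°C. Bound proteins were quantified by label-free LC-MS/MS relative to the control. EC50 came from a four-parameter log-logistic fit, and Kd is EC50 times a protein-dependent depletion factor.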
# SRSF11 = target: T2, SRSF11 (UniProt Q05519)
# T2 sequence: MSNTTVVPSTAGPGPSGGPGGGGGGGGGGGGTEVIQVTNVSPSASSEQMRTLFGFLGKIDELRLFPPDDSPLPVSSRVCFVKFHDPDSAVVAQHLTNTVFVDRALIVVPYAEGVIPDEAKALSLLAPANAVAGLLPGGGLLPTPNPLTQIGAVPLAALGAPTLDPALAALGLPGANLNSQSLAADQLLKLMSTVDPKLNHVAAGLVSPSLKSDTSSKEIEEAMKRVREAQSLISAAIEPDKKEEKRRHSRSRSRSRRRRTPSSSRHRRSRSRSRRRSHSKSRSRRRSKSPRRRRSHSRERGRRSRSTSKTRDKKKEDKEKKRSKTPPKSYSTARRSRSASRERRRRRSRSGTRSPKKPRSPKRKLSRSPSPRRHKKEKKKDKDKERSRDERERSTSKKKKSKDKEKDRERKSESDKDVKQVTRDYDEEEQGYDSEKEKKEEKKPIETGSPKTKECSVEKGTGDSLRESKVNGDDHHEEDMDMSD
# Outline: as §1
# MRPL22 = MRPL22 (UniProt Q9NWU5)
# Outline: as §1
# HNRNPA0 = target: T3, HNRNPA0 (UniProt Q13151)
# T3 sequence: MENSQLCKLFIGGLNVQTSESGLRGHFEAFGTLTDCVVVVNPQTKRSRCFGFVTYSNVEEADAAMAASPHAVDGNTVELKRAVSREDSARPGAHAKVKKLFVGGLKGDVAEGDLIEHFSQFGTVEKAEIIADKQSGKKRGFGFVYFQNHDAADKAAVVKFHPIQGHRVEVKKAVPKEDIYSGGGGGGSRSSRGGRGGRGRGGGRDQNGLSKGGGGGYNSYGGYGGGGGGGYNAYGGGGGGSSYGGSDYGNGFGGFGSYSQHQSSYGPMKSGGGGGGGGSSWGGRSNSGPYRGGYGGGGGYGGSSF
# Outline: as §1
# TRIM56 = target: T4, TRIM56 (UniProt Q9BRZ2)
# T4 sequence: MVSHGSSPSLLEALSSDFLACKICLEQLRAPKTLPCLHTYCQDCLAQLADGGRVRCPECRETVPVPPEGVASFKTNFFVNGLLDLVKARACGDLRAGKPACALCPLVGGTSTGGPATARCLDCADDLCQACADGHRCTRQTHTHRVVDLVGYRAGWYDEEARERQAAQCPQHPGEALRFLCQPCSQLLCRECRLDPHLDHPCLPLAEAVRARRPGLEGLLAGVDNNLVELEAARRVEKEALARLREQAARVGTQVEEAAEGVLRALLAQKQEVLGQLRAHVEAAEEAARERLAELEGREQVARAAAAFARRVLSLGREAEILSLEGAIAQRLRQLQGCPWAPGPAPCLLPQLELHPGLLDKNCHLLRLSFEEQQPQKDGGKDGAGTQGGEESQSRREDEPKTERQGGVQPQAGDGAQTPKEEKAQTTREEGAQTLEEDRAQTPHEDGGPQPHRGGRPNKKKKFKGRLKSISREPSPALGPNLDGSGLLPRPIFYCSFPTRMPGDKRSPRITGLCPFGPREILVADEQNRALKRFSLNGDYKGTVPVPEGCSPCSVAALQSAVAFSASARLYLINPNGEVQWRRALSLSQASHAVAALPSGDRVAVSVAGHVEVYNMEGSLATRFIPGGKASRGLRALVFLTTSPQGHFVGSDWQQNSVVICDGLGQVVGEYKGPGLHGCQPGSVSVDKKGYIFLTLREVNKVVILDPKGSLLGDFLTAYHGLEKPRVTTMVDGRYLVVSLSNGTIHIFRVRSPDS
# Outline: as §1
sequence,measurement,setting,value
AAUAAA,Kd,AASS,1220 nM
same,Kd,SRSF11,126 nM
CUGUCCU,Kd,MRPL22,67.4 nM
UAUUUAU,Kd,HNRNPA0,3200 nM
same,Kd,TRIM56,2880 nM
